Data taken from PMC8298264, “Function of cofactor Akirin2 in the regulation of gene expression in model human neutrophil-like HL60 cells” (Bioscience Reports, 2021).

B1: sp¦Q12931¦TRAP1_HUMAN (protein, UniProt Q12931 60-704, looked up)
Heat shock protein 75 kDa, …: STQTAEDKEEPLHSIISSTESVQGSTSKHEFQAETKKLLDIVARSLYSEKEVFIRELISNASDALEKLRHKLVSDGQALPEMEIHLQTNAEKGTITIQDTGIGMTQEELVSNLGTIARSGSKAFLDALQNQAEASSKIIGQFGVGFYSAFMVADRVEVYSRSAAPGSLGYQWLSDGSGVFEIAEASGVRTGTKIIIHLKSDCKEFSSEARVRDVVTKYSNFVSFPLYLNGRRMNTLQAIWMMDPKDVREWQHEEFYRYVAQAHDKPRYTLHYKTDAPLNIRSIFYVPDMKPSMFDVSRELGSSVALYSRKVLIQTKATDILPKWLRFIRGVVDSEDIPLNLSRELLQESALIRKLRDVLQQRLIKFFIDQSKKDAEKYAKFFEDYGLFMREGIVTATEQEVKEDIAKLLRYESSALPSGQLTSLSEYASRMRAGTRNIYYLCAPNRHLAEHSPYYEAMKKKDTEVLFCFEQFDELTLLHLREFDKKKLISVETDIVVDHYKEEKFEDRSPAAECLSEKETEELMAWMRNVLGSRVTNVKVTLRLDTHPAMVTVLEMGAARHFLRMQQLAKTQEERAQLLQPTLEINPRHALIKKLNQLRASEPGLAQLLVDQIYENAMIAAGLVDDPRAMVGRLNELLVKALERH
B2: sp¦P22087¦FBRL_HUMAN (protein, UniProt P22087 1-321, looked up)
rRNA 2'-O-methyltransferase …: MKPGFSPRGGGFGGRGGFGDRGGRGGRGGFGGGRGRGGGFRGRGRGGGGGGGGGGGGGRGGGGFHSGGNRGRGRGGKRGNQSGKNVMVEPHRHEGVFICRGKEDALVTKNLVPGESVYGEKRVSISEGDDKIEYRAWNPFRSKLAAAILGGVDQIHIKPGAKVLYLGAASGTTVSHVSDIVGPDGLVYAVEFSHRSGRDLINLAKKRTNIIPVIEDARHPHKYRMLIAMVDVIFADVAQPDQTRIVALNAHTFLRNGGHFVISIKANCIDSTASAEAVFASEVKKMQQENMKPQEQLTLEPYERDHAVVVGVYRPPPKVKN
B3: sp¦O00160¦MYO1F_HUMAN (protein, UniProt O00160 1-1098, looked up)
Unconventional myosin-If: MGSKERFHWQSHNVKQSGVDDMVLLPQITEDAIAANLRKRFMDDYIFTYIGSVLISVNPFKQMPYFTDREIDLYQGAAQYENPPHIYALTDNMYRNMLIDCENQCVIISGESGAGKTVAAKYIMGYISKVSGGGEKVQHVKDIILQSNPLLEAFGNAKTVRNNNSSRFGKYFEIQFSRGGEPDGGKISNFLLEKSRVVMQNENERNFHIYYQLLEGASQEQRQNLGLMTPDYYYYLNQSDTYQVDGTDDRSDFGETLSAMQVIGIPPSIQQLVLQLVAGILHLGNISFCEDGNYARVESVDLLAFPAYLLGIDSGRLQEKLTSRKMDSRWGGRSESINVTLNVEQAAYTRDALAKGLYARLFDFLVEAINRAMQKPQEEYSIGVLDIYGFEIFQKNGFEQFCINFVNEKLQQIFIELTLKAEQEEYVQEGIRWTPIQYFNNKVVCDLIENKLSPPGIMSVLDDVCATMHATGGGADQTLLQKLQAAVGTHEHFNSWSAGFVIHHYAGKVSYDVSGFCERNRDVLFSDLIELMQTSEQAFLRMLFPEKLDGDKKGRPSTAGSKIKKQANDLVATLMRCTPHYIRCIKPNETKRPRDWEENRVKHQVEYLGLKENIRVRRAGFAYRRQFAKFLQRYAILTPETWPRWRGDERQGVQHLLRAVNMEPDQYQMGSTKVFVKNPESLFLLEEVRERKFDGFARTIQKAWRRHVAVRKYEEMREEASNILLNKKERRRNSINRNFVGDYLGLEERPELRQFLGKRERVDFADSVTKYDRRFKPIKRDLILTPKCVYVIGREKVKKGPEKGQVCEVLKKKVDIQALRGVSLSTRQDDFFILQEDAADSFLESVFKTEFVSLLCKRFEEATRRPLPLTFSDTLQFRVKKEGWGGGGTRSVTFSRGFGDLAVLKVGGRTLTVSVGDGLPKSSKPTRKGMAKGKPRRSSQAPTRAAPAPPRGMDRNGVPPSARGGPLPLEIMSGGGTHRPPRGPPSTSLGASRRPRARPPSEHNTEFLNVPDQGMAGMQRKRSVGQRPVPGVGRPKPQPRTHGPRCRALYQYVGQDVDELSFNVNEVIEILMEDPSGWWKGRLHGQEGLFPGNYVEKI
B4: sp¦Q9NPJ3¦ACO13_HUMAN (protein, UniProt Q9NPJ3 1-140, looked up)
Acyl-coenzyme A thioesterase …: MTSMTQSLREVIKAMTKARNFERVLGKITLVSAAPGKVICEMKVEEEHTNAIGTLHGGLTATLVDNISTMALLCTERGAPGVSVDMNITYMSPAKLGEDIVITAHVLKQGKTLAFTSVDLTNKATGKLIAQGRHTKHLGN
B5: sp¦P54687¦BCAT1_HUMAN (protein, UniProt P54687 1-386, looked up)
Branched-chain-amino-acid …: MKDCSNGCSAECTGEGGSKEVVGTFKAKDLIVTPATILKEKPDPNNLVFGTVFTDHMLTVEWSSEFGWEKPHIKPLQNLSLHPGSSALHYAVELFEGLKAFRGVDNKIRLFQPNLNMDRMYRSAVRATLPVFDKEELLECIQQLVKLDQEWVPYSTSASLYIRPTFIGTEPSLGVKKPTKALLFVLLSPVGPYFSSGTFNPVSLWANPKYVRAWKGGTGDCKMGGNYGSSLFAQCEAVDNGCQQVLWLYGEDHQITEVGTMNLFLYWINEDGEEELATPPLDGIILPGVTRRCILDLAHQWGEFKVSERYLTMDDLTTALEGNRVREMFGSGTACVVCPVSDILYKGETIHIPTMENGPKLASRILSKLTDIQYGREESDWTIVLS
B6: sp¦P26639¦SYTC_HUMAN (protein, UniProt P26639 1-723, looked up)
Threonine--tRNA ligase 1, …: MFEEKASSPSGKMGGEEKPIGAGEEKQKEGGKKKNKEGSGDGGRAELNPWPEYIYTRLEMYNILKAEHDSILAEKAEKDSKPIKVTLPDGKQVDAESWKTTPYQIACGISQGLADNTVIAKVNNVVWDLDRPLEEDCTLELLKFEDEEAQAVYWHSSAHIMGEAMERVYGGCLCYGPPIENGFYYDMYLEEGGVSSNDFSSLEALCKKIIKEKQAFERLEVKKETLLAMFKYNKFKCRILNEKVNTPTTTVYRCGPLIDLCRGPHVRHTGKIKALKIHKNSSTYWEGKADMETLQRIYGISFPDPKMLKEWEKFQEEAKNRDHRKIGRDQELYFFHELSPGSCFFLPKGAYIYNALIEFIRSEYRKRGFQEVVTPNIFNSRLWMTSGHWQHYSENMFSFEVEKELFALKPMNCPGHCLMFDHRPRSWRELPLRLADFGVLHRNELSGALTGLTRVRRFQQDDAHIFCAMEQIEDEIKGCLDFLRTVYSVFGFSFKLNLSTRPEKFLGDIEVWDQAEKQLENSLNEFGEKWELNSGDGAFYGPKIDIQIKDAIGRYHQCATIQLDFQLPIRFNLTYVSHDGDDKKRPVIVHRAILGSVERMIAILTENYGGKWPFWLSPRQVMVVPVGPTCDEYAQKVRQQFHDAKFMADIDLDPGCTLNKKIRNAQLAQYNFILVVGEKEKISGTVNIRTRDNKVHGERTISETIERLQQLKEFRSKQAEEEF
B7: sp¦O60832¦DKC1_HUMAN (protein, UniProt O60832 2-514, looked up)
H/ACA ribonucleoprotein …: ADAEVIILPKKHKKKKERKSLPEEDVAEIQHAEEFLIKPESKVAKLDTSQWPLLLKNFDKLNVRTTHYTPLACGSNPLKREIGDYIRTGFINLDKPSNPSSHEVVAWIRRILRVEKTGHSGTLDPKVTGCLIVCIERATRLVKSQQSAGKEYVGIVRLHNAIEGGTQLSRALETLTGALFQRPPLIAAVKRQLRVRTIYESKMIEYDPERRLGIFWVSCEAGTYIRTLCVHLGLLLGVGGQMQELRRVRSGVMSEKDHMVTMHDVLDAQWLYDNHKDESYLRRVVYPLEKLLTSHKRLVMKDSAVNAICYGAKIMLPGVLRYEDGIEVNQEIVVITTKGEAICMAIALMTTAVISTCDHGIVAKIKRVIMERDTYPRKWGLGPKASQKKLMIKQGLLDKHGKPTDSTPATWKQEYVDYSESAKKEVVAEVVKAPQVVAEAAKTAKRKRESESESDETPPAAPQLIKKEKKKSKKDKKAKAGLESGAEPGDGDSDTTKKKKKKKKAKEVELVSE
B8: sp¦P50213¦IDH3A_HUMAN (protein, UniProt P50213 28-366, looked up)
Isocitrate dehydrogenase …: TGGVQTVTLIPGDGIGPEISAAVMKIFDAAKAPIQWEERNVTAIQGPGGKWMIPSEAKESMDKNKMGLKGPLKTPIAAGHPSMNLLLRKTFDLYANVRPCVSIEGYKTPYTDVNIVTIRENTEGEYSGIEHVIVDGVVQSIKLITEGASKRIAEFAFEYARNNHRSNVTAVHKANIMRMSDGLFLQKCREVAESCKDIKFNEMYLDTVCLNMVQDPSQFDVLVMPNLYGDILSDLCAGLIGGLGVTPSGNIGANGVAIFESVHGTAPDIAGKDMANPTALLLSAVMMLRHMGLFDHAARIEAACFATIKDGKSLTKDLGGNAKCSDFTEEICRRVKDLD
B9: sp¦Q9BVP2¦GNL3_HUMAN (protein, UniProt Q9BVP2 1-549, looked up)
Guanine nucleotide-binding …: MKRPKLKKASKRMTCHKRYKIQKKVREHHRKLRKEAKKRGHKKPRKDPGVPNSAPFKEALLREAELRKQRLEELKQQQKLDRQKELEKKRKLETNPDIKPSNVEPMEKEFGLCKTENKAKSGKQNSKKLYCQELKKVIEASDVVLEVLDARDPLGCRCPQVEEAIVQSGQKKLVLILNKSDLVPKENLESWLNYLKKELPTVVFRASTKPKDKGKITKRVKAKKNAAPFRSEVCFGKEGLWKLLGGFQETCSKAIRVGVIGFPNVGKSSIINSLKQEQMCNVGVSMGLTRSMQVVPLDKQITIIDSPSFIVSPLNSSSALALRSPASIEVVKPMEAASAILSQADARQVVLKYTVPGYRNSLEFFTVLAQRRGMHQKGGIPNVEGAAKLLWSEWTGASLAYYCHPPTSWTPPPYFNESIVVDMKSGFNLEELEKNNAQSIRAIKGPHLANSILFQSSGLTNGIIEEKDIHEELPKRKERKQEEREDDKDSDQETVDEEVDENSSGMFAAEETGEALSEETTAGEQSTRSFILDKIIEEDDAYDFSTDYV

system: human HL60 cells; experiment: SWATH-MS proteomics, differential protein representation, akirin2 KO vs WT HL60 cells; format: cell-based; conditions: SWATH-MS, akirin2 KO vs WT HL60 cells; sheet "Under-represented in KO"
Method in brief: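 Differential representation compares akirin2 KO with WT HL60 across three biological replicates, 5 µg digest each, acquired by data-independent SWATH on a 120-min gradient. Library built from combined IDA runs searched with Paragon; proteins accepted at 1% FDR, with total-area-sum normalization.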

Molecule	Fold Change	Log (Fold Change)
B1	0.7682	-0.1145
B2	0.7688	-0.1142
B3	0.7701	-0.1134
B4	0.7707	-0.1131
B5	0.7726	-0.112
B6	0.7727	-0.112
B7	0.774	-0.1113
B8	0.7755	-0.1104
B9	0.7833	-0.1061
